From IntAct's records for PubMed 22089237 come the findings set out here.

The labels stand for the following.
B1: Alpha-1A adrenergic receptor (Homo sapiens), P35348 (parent)
chain: MVFLSGNASDSSNCTQPPAPVNISKAILLGVILGGLILFGVLGNILVILSVACHRHLHSVTHYYIVNLAVADLLLTSTVLPFSAIFEVLGYWAFGRVFCNIWAAVDVLCCTASIMGLCIISIDRYIGVSYPLRYPTIVTQRRGLMALLCVWALSLVISIGPLFGWRQPAPEDETICQINEEPGYVLFSALGSFYLPLAIILVMYCRVYVVAKRESRGLKSGLKTDKSDSEQVTLRIHRKNAPAGGSGMASAKTKTHFSVRLLKFSREKKAAKTLGIVVGCFVLCWLPFFLVMPIGSFFPDFKPSETVFKIVFWLGYLNSCINPIIYPCSSQEFKKAFQNVLRIQCLCRKQSSKHALGYTLHPPSQAVEGQHKDMVRIPVGSRETFYRISKTDGVCEWKFFSSMPRGSARITVSKDQSSCTTARVRSKSFLQVCCCVGPSTPSLDKNHQVPTIKVHTISLSENGEEV

The variants in the assay derive from B1. Particulars: with arrb1_rat Arrb1, P29066.
arrb1_rat Arrb1, P29066, sequence (P29066 whole entry): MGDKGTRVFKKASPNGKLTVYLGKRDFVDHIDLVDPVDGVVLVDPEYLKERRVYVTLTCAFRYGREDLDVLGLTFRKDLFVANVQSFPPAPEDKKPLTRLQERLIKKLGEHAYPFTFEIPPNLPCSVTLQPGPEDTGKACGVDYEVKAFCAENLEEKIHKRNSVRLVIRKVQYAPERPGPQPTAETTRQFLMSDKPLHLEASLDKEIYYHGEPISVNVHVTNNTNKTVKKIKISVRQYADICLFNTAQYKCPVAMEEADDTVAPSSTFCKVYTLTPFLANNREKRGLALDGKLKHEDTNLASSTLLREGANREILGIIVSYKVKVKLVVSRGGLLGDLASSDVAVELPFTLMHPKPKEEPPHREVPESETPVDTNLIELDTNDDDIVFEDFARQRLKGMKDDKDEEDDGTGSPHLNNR
For the variant MVFLSGNASDSSNCTQPPAPVNISKAILLGVILGGLILFGVLGNILVILSVACHRHLHSVTHYYIVNLAVADLLLTSTVLPFSAIFEVLGYWAFGRVFCNIWAAVDVLCCTASIMGLCIISIDRYIGVSYPLRYPTIVTQRRGLMALLCVWALSLVISIGPLFGWRQPAPEDETICQINEEPGYVLFSALGSFYLPLAIILVMYCRVYVVAKRESRGLKSGLKTDKSDSEQVTLRIHRKNAPAGGSRMASAKTKTHFSVRLLKFSREKKAAKTLGIVVGCFVLCWLPFFLVMPIGSFFPDFKPSETVFKIVFWLGYLNSCINPIIYPCSSQEFKKAFQNVLRIQCLCRKQSSKHALGYTLHPPSQAVEGQHKDMVRIPVGSRETFYRISKTDGVCEWKFFSSMPRGSARITVSKDQSSCTTARVRSKSFLQVCCCVGPSTPSLDKNHQVPTIKVHTISLSENGEEV [G247R], the “effect of a mutation on the interaction” value is “increasing interaction strength”.
